A short description of data set [1]: Thermostability assay of βAR34-424 and mutants (heat detergent-solubilised receptor 30 min, then [3H]-DHA binding). Conditions: heated 30 min without ligand; for Tm: turkey βAR expressed in E. coli, DDM-solubilised, [3H]-DHA binding, mean ± S.E. from duplicates.
Description: Binding assays were performed using [^3H]-dihydroalprenolol (DHA) as radioligand as described under “Methods”. Samples were heated for 30 minutes at different temperatures before the assay. […] Data points are from duplicates of one single experiment. This experiment has been repeated several times with similar results.
Expression of βAR and the mutants was performed in X10 cells (Stratagene). Cultures of 50 ml of 2×TY medium containing ampicillin (100 μg/ml) were grown at 37° C. with shaking until OD600=3 and then induced with 0.4 mM IPTG. Induced cultures were incubated at 25° C. for 4 h and then cells were harvested by centrifugation at 13,000×g for 1 min (aliquots of 2 ml) and stored at ±20° C. For the assays, cells were broken by freeze-thaw (five cycles), resuspended in 500 μl of buffer [20 mM Tris pH 8, 0.4 M NaCl, 1 mM EDTA and protease inhibitors (Complete™, Roche)]. After an incubation for 1 h at 4° C. with 100 μg/ml lysozyme and DNase I (Sigma), samples were solubilized with 2% DDM on ice for 30 minutes. Insoluble material was removed by centrifugation (15,000×g, 2 min, 4° C.) and the supernatant was used directly in radioligand binding assays.
Single point binding assays contained 20 mM Tris pH 8, 0.4 M NaCl, 1 mM EDTA, 0.1% DDM (or corresponding detergent) with 50 nM [^3H]-DHA and 20-100 μg membrane protein in a final volume of 120 μl; equilibration was for 1 h at 4° C. Thermostability was assessed by incubating the binding assay mix, with or without [^3H]-DHA at the specified temperature for 30 minutes; reactions were placed on ice and [^3H]-DHA added as necessary and equilibrated for a further hour. […] Radioactivity was counted on a Beckman LS6000 liquid scintillation counter and data were analyzed by nonlinear regression using Prism software (GraphPad).
A short description of data set [2]: Thermostability of β adrenergic receptors expressed in mammalian cells, minus-ligand format. To be noted: 0.1% dodecylmaltoside, apo-state heated, 3H-DHA added after.
Excerpt: The resulting mutants were transiently expressed in mammalian cells, solubilised in 0.1% dodecylmaltoside and assayed for thermostability in the minus-ligand format (heating the apo-state, quenching on ice, adding 3H-DHA).
Data set [3] can be described thus: Stability of wild-type and mutant A2aR in different detergents. The data set is classed as physicochemical. Also noted: key: It was not possible to determine the Tm for some receptor-detergent combinations, because the receptor was too unstable (†).
Data set [4] is described as follows: Thermostability of A2aR and mutants (ligand binding after or during heating). To be noted: for Tm +agonist / Tm +antagonist / Tm −agonist / Tm −antagonist: 1% DDM (no glycerol); for Tm +agonist: agonist-occupied state; for Tm +antagonist: antagonist-occupied state; for Tm −agonist / Tm −antagonist: apo-state; for Tm −agonist: agonist binding; for Tm −antagonist: antagonist binding; for Tm: ZM241385 bound; for thermostability assayed with 3H-ZM241385 (antagonist) / thermostability measured with 3H-NECA (agonist): Ligand(−) format, binding after the heating step. Format: physicochemical. The procedure, abridged:
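Thermostability of wild-type and site-directed mutant A2aR assessed by agonist or antagonist binding either after heating (ligand(−) format) or during heating with ligand present (ligand(+) format); stability expressed as Tm.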

Data set [5] deals with βAR-m23 (Meleagris gallopavo, UniProt P07700, A282L/C116L/F327A/F338M/M90V/R68S/Y227A). The data set is classed as binding, turkey.
Data set [6] deals with Rant 21 (Homo sapiens, UniProt P29274, A54L/K122A/T88A/V239A). As to the kind of experiment: Competition assay against [3H]ZM241385, detergent-solubilised receptor. The data set is classed as binding. Conditions: versus wild-type A2aR.

Where a chain is given by its changes, count along the chain named. In names and notes the source's numbering stands. Read-outs that look alike come from different tables or passages of the source.

One may read the Kd as the free concentration of one partner at which half of the binding sites on the other are occupied at equilibrium, for simple one-to-one binding.

Sequence of βAR-m23 (P07700 34-424 R68S/M90V/C116L/Y227A/A282L/F327A/F338M): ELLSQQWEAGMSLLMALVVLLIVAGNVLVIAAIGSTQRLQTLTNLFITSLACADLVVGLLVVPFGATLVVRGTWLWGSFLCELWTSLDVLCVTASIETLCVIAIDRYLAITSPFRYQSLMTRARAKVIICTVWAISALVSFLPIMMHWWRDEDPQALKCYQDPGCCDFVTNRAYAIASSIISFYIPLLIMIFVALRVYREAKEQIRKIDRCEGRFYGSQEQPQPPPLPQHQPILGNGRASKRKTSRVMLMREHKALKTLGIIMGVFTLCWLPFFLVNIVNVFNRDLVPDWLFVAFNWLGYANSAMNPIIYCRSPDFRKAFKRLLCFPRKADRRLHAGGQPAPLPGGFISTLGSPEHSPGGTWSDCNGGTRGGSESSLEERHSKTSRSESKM
Sequence of Rant 21 (P29274 whole entry A54L/T88A/K122A/V239A): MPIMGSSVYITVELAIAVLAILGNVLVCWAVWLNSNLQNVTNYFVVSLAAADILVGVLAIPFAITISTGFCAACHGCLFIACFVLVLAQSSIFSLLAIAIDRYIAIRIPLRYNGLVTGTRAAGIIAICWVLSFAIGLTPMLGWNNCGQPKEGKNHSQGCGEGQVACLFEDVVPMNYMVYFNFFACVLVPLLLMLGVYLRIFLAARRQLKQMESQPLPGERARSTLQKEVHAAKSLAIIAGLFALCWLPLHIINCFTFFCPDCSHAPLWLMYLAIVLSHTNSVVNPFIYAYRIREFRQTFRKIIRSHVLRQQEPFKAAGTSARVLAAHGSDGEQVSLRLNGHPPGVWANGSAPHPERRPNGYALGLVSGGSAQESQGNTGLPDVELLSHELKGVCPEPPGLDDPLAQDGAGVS

Turning to “m20: βAR34-424 mutant R68S, M90V, F327A, A334L”, the Tm in data set [1] came out at 48.4 ± 0.7 °C.
In the case of “m6-4: βAR34-424 mutant R68S, Y227A, A234L, A282L”, the Tm in data set [1] was 41.6 ± 0.1 °C.
As to “m6-5: βAR34-424 mutant R68S, A234L, A282L, A334L”, in data set [1], the Tm came to 41.9 ± 0.5 °C.
Turning to “m7-7: βAR34-424 mutant M90V, Y227A, F338M”, the Tm in data set [1] is 45.2 ± 2.0 °C.
Regarding “m6-9: βAR34-424 mutant R68S, Y227A, A234L, A282L, A334L”, the Tm in data set [1] was determined as 43.7 ± 0.4 °C.
For the molecule “m10-4: βAR34-424 mutant R68S, M90V, V230A, A334L”, the Tm in data set [1] was 46.9 ± 1.0 °C.
“turkey β1: turkey β1 adrenergic receptor transiently expressed in mammalian cells”: the “apparent Tm” value in data set [2] was found to be 23 °C.
Turning to “Wildtype A2aR: human adenosine A2a receptor, parent”, the “Tm Agonist-binding” value in data set [3] (0.003% LDAO) was 28 °C; in data set [3] (0.006% FC12) it was 37 °C; in data set [3] (0.01% DDM), 27 °C; in data set [3] (0.1% DM), 23 °C; in data set [3] (0.3% NG), “†”; in data set [3] (0.3% NM) it was 22 °C. The “Tm Agonist-binding” value in data set [3] (0.6% OG) was below 9 °C. Further, the “Tm Antagonist-binding” value was 32 °C in data set [3] (0.003% LDAO); 43 °C in data set [3] (0.006% FC12); 25 °C in data set [3] (0.01% DDM); 10 °C in data set [3] (0.1% DM); “†” in data set [3] (0.3% NG); below 4 °C in data set [3] (0.3% NM). Further, in data set [3] (0.6% OG), the “Tm Antagonist-binding” value is “†”. Besides, in data set [4], the “Tm +agonist” value stood at 29 °C. For the same molecule, in data set [4], the “Tm +antagonist” value amounted to 32 °C. The “Tm −agonist” value in data set [4] is 21 °C. In addition, in data set [4], the “Tm −antagonist” value is 31 °C. The Tm in data set [4] is 31 °C.
As for “1-[4,6-propyl-^3H]-dihydroalprenolol [[^3H]-dihydroalprenolol]”, the Kd in data set [5] (membranes, n=2) worked out at 6.5 ± 0.2 nM; in data set [5] (semipurified receptor), 12.5 nM.
Turning to human β1: human β1 adrenergic receptor, in data set [2], the “apparent Tm” value is around 12 °C.
With “m6-10: βAR34-424 mutant R68S, Y227A, A282L, A334L”, the Tm in data set [1] was 47.4 ± 1.1 °C.
“m7-1: βAR34-424 mutant M90V, A282L, F338M”: in data set [1], the Tm is 43.0 ± 0.8 °C.
As to M90A: βAR34-424 point mutant, in data set [1] (DDM), the “increase in Tm compared to βAR34-424” value was 8 °C.

B1: K122A: A2aR point mutant (protein, UniProt P29274 1-412, looked up, variant K122A)
Adenosine receptor A2a: MPIMGSSVYITVELAIAVLAILGNVLVCWAVWLNSNLQNVTNYFVVSLAAADIAVGVLAIPFAITISTGFCAACHGCLFIACFVLVLTQSSIFSLLAIAIDRYIAIRIPLRYNGLVTGTRAAGIIAICWVLSFAIGLTPMLGWNNCGQPKEGKNHSQGCGEGQVACLFEDVVPMNYMVYFNFFACVLVPLLLMLGVYLRIFLAARRQLKQMESQPLPGERARSTLQKEVHAAKSLAIIVGLFALCWLPLHIINCFTFFCPDCSHAPLWLMYLAIVLSHTNSVVNPFIYAYRIREFRQTFRKIIRSHVLRQQEPFKAAGTSARVLAAHGSDGEQVSLRLNGHPPGVWANGSAPHPERRPNGYALGLVSGGSAQESQGNTGLPDVELLSHELKGVCPEPPGLDDPLAQDGAGVS
Regarding B1, the “thermostability assayed with 3H-ZM241385 (antagonist)” value (from here on “thermostability assayed”) in data set [4] is on record as “improved thermostability”.

B2: A204L: A2aR point mutant (protein, UniProt P29274 1-412, looked up, variant A204L)
Adenosine receptor A2a: B1 Adenosine receptor A2a with A122K, A204L
As to B2, the “thermostability assayed” value in data set [4] is “improved thermostability”.

B3: L235A: A2aR point mutant (protein, UniProt P29274 1-412, looked up, variant L235A)
Adenosine receptor A2a: B1 Adenosine receptor A2a with A122K, L235A
B3: the “thermostability assayed” value in data set [4] was “improved thermostability”.

B4: R199A: A2aR point mutant (protein, UniProt P29274 1-412, looked up, variant R199A)
Adenosine receptor A2a: B1 Adenosine receptor A2a with A122K, R199A
In the case of B4, the “thermostability measured with 3H-NECA (agonist)” value (shortened to “thermostability measured”) in data set [4] was “improved thermostability”.

B5: Rag 1: A2aR mutant A184L/R199A/L272A (protein, UniProt P29274 1-412, looked up, variant A184L R199A L272A)
Adenosine receptor A2a: B1 Adenosine receptor A2a with A122K, A184L, R199A, L272A
As to B5, in data set [4], the “Tm +agonist” value was determined as 34 °C and the “Tm −agonist” value amounted to 26 °C.

B6: G123A: A2aR point mutant (protein, UniProt P29274 1-412, looked up, variant G123A)
Adenosine receptor A2a: B1 Adenosine receptor A2a with A122K, G123A
Turning to B6, the “thermostability assayed” value in data set [4] was “improved thermostability”.

B7: Rant 21: A2aR mutant A54L, T88A, V239A+K122A (protein, UniProt P29274 1-412, looked up, variant A54L T88A V239A K122A)
Adenosine receptor A2a: B1 Adenosine receptor A2a with A54L, T88A, V239A
Take B7: in data set [6], the “agonist binding weaker than parent” value is reported as 2-4 orders of magnitude. Also, the “Tm Antagonist-binding” value turned out to be 42 °C in data set [3] (0.003% LDAO); 49 °C in data set [3] (0.006% FC12); 39 °C in data set [3] (0.01% DDM); 28 °C in data set [3] (0.1% DM); 22 °C in data set [3] (0.3% NG); 25 °C in data set [3] (0.3% NM). Besides, the “Tm Antagonist-binding” value in data set [3] (0.6% OG) worked out at 23 °C. In addition, in data set [4], the “Tm +antagonist” value turned out to be 49 °C. Also, the “Tm −antagonist” value in data set [4] came to 41 °C. Further, in data set [4], the Tm was determined as 49 °C.

B8: Rant19: A2aR mutant A54L, T88A, V239A+A204L (protein, UniProt P29274 1-412, looked up, variant A54L T88A V239A A204L)
Adenosine receptor A2a: B1 Adenosine receptor A2a with A54L, T88A, A122K, A204L, V239A
For the molecule B8, the Tm in data set [4] was 47 °C.

B9: E151A: A2aR point mutant (protein, UniProt P29274 1-412, looked up, variant E151A)
Adenosine receptor A2a: B1 Adenosine receptor A2a with A122K, E151A
B9: the “thermostability assayed” value in data set [4] is reported as “improved thermostability”.

B10: P149A: A2aR point mutant (protein, UniProt P29274 1-412, looked up, variant P149A)
Adenosine receptor A2a: B1 Adenosine receptor A2a with A122K, P149A
With B10, the “thermostability assayed” value in data set [4] was “improved thermostability”.

B11: L167A: A2aR point mutant (protein, UniProt P29274 1-412, looked up, variant L167A)
Adenosine receptor A2a: B1 Adenosine receptor A2a with A122K, L167A
Take B11: the “thermostability measured” value in data set [4] was “improved thermostability”.

B12: V239A: A2aR point mutant (protein, UniProt P29274 1-412, looked up, variant V239A)
Adenosine receptor A2a: B1 Adenosine receptor A2a with A122K, V239A
For the molecule B12, the “thermostability assayed” value in data set [4] is reported as “improved thermostability”.

B13: G152A: A2aR point mutant (protein, UniProt P29274 1-412, looked up, variant G152A)
Adenosine receptor A2a: B1 Adenosine receptor A2a with A122K, G152A
Take B13: the “thermostability assayed” value in data set [4] is given as “improved thermostability”.

B14: A231L: A2aR point mutant (protein, UniProt P29274 1-412, looked up, variant A231L)
Adenosine receptor A2a: B1 Adenosine receptor A2a with A122K, A231L
Take B14: the “thermostability assayed” value in data set [4] is “improved thermostability”.

B15: A184L: A2aR point mutant (protein, UniProt P29274 1-412, looked up, variant A184L)
Adenosine receptor A2a: B1 Adenosine receptor A2a with A122K, A184L
Regarding B15, in data set [4], the “thermostability measured” value is “improved thermostability”.

B16: Rant 5: A2aR mutant A54L/T88A/V239A (protein, UniProt P29274 1-412, looked up, variant A54L T88A V239A)
Adenosine receptor A2a: B1 Adenosine receptor A2a with A54L, T88A, A122K, V239A
In the case of B16, in data set [4], the “Tm +antagonist” value was found to be 46 °C and the “Tm −antagonist” value was 42 °C.

B17: G118A: A2aR point mutant (protein, UniProt P29274 1-412, looked up, variant G118A)
Adenosine receptor A2a: B1 Adenosine receptor A2a with G118A, A122K
For the molecule B17, in data set [4], the “thermostability assayed” value is given as “improved thermostability” and the “thermostability measured” value was “improved thermostability”.

(Values after patent publication US8785135B2, “Mutant G-protein coupled receptors and methods for selecting them” (Heptares Therapeutics Limited, priority 2007, dated 2014).)
